Assay results: patent publication US20140256041A1

Target: Human GPR49 (LGR5), full length, on cells (human) (UniProt O75473)
Test: cell-based or functional assay

Sequence of Human GPR49 (LGR5), full length, on cells (human) (O75473 22-907 limits assumed): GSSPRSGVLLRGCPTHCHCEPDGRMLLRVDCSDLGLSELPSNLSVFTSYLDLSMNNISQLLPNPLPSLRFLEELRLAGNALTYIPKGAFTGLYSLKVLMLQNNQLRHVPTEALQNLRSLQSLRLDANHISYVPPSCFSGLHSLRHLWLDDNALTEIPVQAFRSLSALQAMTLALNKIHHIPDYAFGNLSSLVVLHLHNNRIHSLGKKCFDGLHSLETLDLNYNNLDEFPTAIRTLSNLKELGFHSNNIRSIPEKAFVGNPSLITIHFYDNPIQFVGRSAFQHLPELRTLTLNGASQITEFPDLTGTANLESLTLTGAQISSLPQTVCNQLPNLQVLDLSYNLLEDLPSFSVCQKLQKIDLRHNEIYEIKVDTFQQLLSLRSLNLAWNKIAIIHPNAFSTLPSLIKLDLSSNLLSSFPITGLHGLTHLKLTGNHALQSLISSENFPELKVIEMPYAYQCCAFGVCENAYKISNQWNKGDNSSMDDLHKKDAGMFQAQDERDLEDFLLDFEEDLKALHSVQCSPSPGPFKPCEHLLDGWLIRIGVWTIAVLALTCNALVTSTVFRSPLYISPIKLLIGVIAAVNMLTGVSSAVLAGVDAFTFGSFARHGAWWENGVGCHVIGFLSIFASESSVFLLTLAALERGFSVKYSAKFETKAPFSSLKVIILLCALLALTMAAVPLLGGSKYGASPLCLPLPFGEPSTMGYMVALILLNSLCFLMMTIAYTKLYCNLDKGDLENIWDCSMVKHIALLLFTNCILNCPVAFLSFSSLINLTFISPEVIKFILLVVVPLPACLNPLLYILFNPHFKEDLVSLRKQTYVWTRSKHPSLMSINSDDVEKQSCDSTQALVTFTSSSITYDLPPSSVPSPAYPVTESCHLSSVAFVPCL

Substance: R-spondin 1 (ligand)
- increase in proliferation, GPR49-3T3 clone 28: 4 fold
